Experiments:
[1] = target: T1, cynomolgus monkey CD45 on the T cell line HSC-F (cynomolgus monkey, UniProt A0A2K5VQ76 26-1301); experiment: FACS competition with FITC-conjugated mA6 on HSC-F cells; curve fit assuming divalent antibody binding
T1 construct: whole, on cells; also called cynomolgus HSC-F cell target
T1 sequence: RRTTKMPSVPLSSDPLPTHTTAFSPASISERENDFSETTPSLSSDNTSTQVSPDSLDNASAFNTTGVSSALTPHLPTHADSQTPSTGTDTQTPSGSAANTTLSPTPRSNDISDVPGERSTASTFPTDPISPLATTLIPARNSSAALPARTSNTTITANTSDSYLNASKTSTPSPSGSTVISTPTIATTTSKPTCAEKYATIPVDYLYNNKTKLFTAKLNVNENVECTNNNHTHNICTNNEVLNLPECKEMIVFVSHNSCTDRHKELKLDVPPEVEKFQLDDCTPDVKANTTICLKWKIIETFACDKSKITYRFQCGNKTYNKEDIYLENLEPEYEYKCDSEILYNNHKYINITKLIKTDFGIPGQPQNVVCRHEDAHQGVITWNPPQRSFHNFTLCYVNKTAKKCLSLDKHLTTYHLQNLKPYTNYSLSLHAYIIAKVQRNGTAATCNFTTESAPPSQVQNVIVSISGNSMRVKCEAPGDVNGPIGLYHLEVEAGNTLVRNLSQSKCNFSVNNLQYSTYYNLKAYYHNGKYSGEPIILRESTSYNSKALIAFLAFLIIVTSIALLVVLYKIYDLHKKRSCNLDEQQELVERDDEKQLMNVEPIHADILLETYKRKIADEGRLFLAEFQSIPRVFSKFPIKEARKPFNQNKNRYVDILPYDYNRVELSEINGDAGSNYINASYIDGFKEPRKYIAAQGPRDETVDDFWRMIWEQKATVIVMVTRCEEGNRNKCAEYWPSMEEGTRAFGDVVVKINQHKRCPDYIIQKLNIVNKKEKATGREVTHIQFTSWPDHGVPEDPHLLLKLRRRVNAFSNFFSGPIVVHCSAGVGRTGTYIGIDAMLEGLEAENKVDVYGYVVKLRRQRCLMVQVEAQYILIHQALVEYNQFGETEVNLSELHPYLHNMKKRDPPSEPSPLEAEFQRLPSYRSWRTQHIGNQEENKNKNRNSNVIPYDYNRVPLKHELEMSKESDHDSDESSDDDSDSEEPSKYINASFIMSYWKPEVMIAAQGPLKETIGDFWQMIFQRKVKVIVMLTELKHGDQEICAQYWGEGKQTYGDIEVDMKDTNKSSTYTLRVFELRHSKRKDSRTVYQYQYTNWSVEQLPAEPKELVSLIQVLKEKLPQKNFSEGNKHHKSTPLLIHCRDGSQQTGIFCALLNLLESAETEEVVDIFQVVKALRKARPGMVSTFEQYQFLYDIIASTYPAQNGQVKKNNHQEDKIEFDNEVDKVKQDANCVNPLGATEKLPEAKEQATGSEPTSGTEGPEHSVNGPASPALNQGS

[2] = target: human CD45 on the human T cell line PEER (human) (UniProt P08575); experiment: FACS competition with FITC-conjugated mA6 on PEER cells; curve fit assuming divalent antibody binding

B1: humanised antibody VHE-N73D/humV1 (antibody, V domains shown)
VH: EVQLVESGAEVKKPGASVKVSCKASGYTFTNYIIHWVKQEPGQGLEWIGYFNPYNHGTKYNEKFKGRATLTADKSISTAYMELSSLRSEDTAVYYCARSGPYAWFDTWGQGTTVTVSS
VL: DILLTQSPATLSLSPGERATLSCRASQNIGTSIQWYQQKPGQAPRLLIRSSSESISGIPSRFSGSGSGTDFTLTISSLEPEDFAVYYCQQSNTWPFTFGQGTKLEIK
notes: Constant parts are human gamma-1 and human kappa; expressed in Sp2/0 cells; also called VHEN73D/VL1; VHEN73D/VLh
Kd [1]: 1.67 nM
Kd [2]: 2.44 nM

Reference: EP1664122B1 (Novartis AG, dated 2010)
